Experimental data reported in publication PMC4522605, “Evolution of plant δ^1-pyrroline-5-carboxylate reductases from phylogenetic and structural perspectives” (Frontiers in Plant Science, 2015).

B1: Arabidopsis thaliana P5CR (δ1-pyrroline-5-carboxylate reductase) (enzyme, UniProt P54904 1-276, looked up)
chain: MEILPIPAESFKVGFIGAGKMAESIARGVVASGVLPPNRICTAVHSNLNRRDVFESFGVNVFSTSEEVVKESDVVIFSVKPQVVKKAVTELKSKLSKNKILVSVAAGIKLNDLQEWSGQDRFIRVMPNTPAAVGEAASVMSLGTGATEEDGAIVAMLFGAVGKILKADEKMFDAVTGLSGSGPAYIFLAIEALADGGVAAGLPRELALSLASQTVLGAATMVSKTGKHPGVLKDDVTSPGGTTIAGVHELEKGSFRATLMNAVVAAAKRSRELSQS
notes: Pyrroline-5-carboxylate reductase of Arabidopsis thaliana; coding gene cloned into pMCSG68 (construct as in Giberti et al., 2014); also called AtP5CR; P5C reductase; source: E. coli BL21 Gold, purified (HisTrap HP, TEV cleavage, second HisTrap HP pass); not shown: His6, N-terminal, cleaved; copies: 10

How the values were obtained:
[1] = molecular target: Bacillus cereus P5CR (Bc_2977), full-length (Bacillus cereus); assay: SEC; HiLoad 16/600 Superdex 200 Prep Grade; 1.5 mL of purified protein at ~5 mg/mL; run in lysis buffer (50 mM HEPES pH 8.0, 500 mM NaCl, 5% glycerol, 20 mM imidazole, 10 mM β-mercaptoethanol); calibrated with chymotrypsinogen A, albumin, SpP5CR decamer (275 kDa) and thyroglobulin
[2] = molecular target: the molecule itself; assay: as above

Molecule	stoichiometry N [1]	stoichiometry N [2]
Bacillus cereus P5CR (Bc_2977), full-length (enzyme)	10	–
B1	–	10
